We go through 13 molecules from publication PMC10598736, “Structural insights into Rad18 targeting by the SLF1 BRCT domains” (The Journal of Biological Chemistry, 2023).

Square brackets hold non-standard residues; d marks the D form. Ends that are not written are not given here. Peptide text beside a SMILES is read from it. pS = N[C@@H](COP(=O)(O)O)C(=O)O

In general, Kd refers to the equilibrium constant for the complex coming apart. Low readings indicate tighter binding, high ones weaker binding. By stoichiometry N is commonly meant the number of molecules, sites or subunits per partner or assembly.

Assay [1] has as its target T1, SLF1^tBRCT (residues 1–199), WT (Homo sapiens, UniProt Q9BQI6).
T1 construct: The coding region for SLF1^tBRCT (residues 1–199) was optimized for expression in E. coli; made in house; host or cells: E. coli BL21 Rosetta (DE3)
T1 sequence (Q9BQI6 1-199): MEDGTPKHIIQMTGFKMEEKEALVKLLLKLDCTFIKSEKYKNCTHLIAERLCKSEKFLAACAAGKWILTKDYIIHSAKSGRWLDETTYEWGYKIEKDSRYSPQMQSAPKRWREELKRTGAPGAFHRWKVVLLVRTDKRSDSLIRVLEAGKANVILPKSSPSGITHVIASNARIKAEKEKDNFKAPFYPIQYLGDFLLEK
As to the kind of experiment: ITC of peptide binding to wild-type SLF1 tBRCT. Particulars: 25 °C, 20 mM Tris pH 7.5, 200 mM NaCl; for Kd: 1.3 mM Rad18 peptide into 0.1 mM protein (BRCTide 6 mM into 0.2 mM), average ± SD of three independent repeats, ND = not detected. As to the method: ITC experiments were carried out on a MicroCal ITC 200 instrument (Malvern) at 25 °C. Prior to the ITC experiments, SLF1^tBRCT was exchanged into a buffer containing 20 mM Tris (pH 7.5) and 200 mM sodium chloride and peptides (Sangon Biotech, Scilight biotechnology, Hefei Scierbio-Tech, Synpeptide) were dissolved in the same buffer. To characterize binding, a solution containing 1.3 mM Rad18 peptide or 6 mM BRCTide was injected into a 300-μl cell that stores 0.1 mM (for binding experiments with Rad18 peptides) or 0.2 mM (for the binding experiment with BRCTide) SLF1^tBRCT, 2 μl at a time. Data were analyzed with ORIGIN 7.0 (Originlab).

For assay [2], the target named is SLF1 tandem BRCT repeat (SLF1^tBRCT), residues 1-199, wild type (UniProt Q9BQI6). Nature of the assay: ITC; MicroCal ITC 200, 25 °C, 20 mM Tris (pH 7.5), 200 mM sodium chloride; 1.3 mM Rad18 peptide or 6 mM BRCTide injected into 0.1 mM (Rad18 peptides) or 0.2 mM (BRCTide) SLF1^tBRCT in the cell; three independent repeats. (In general: ITC needs no label: the signal is the heat of the interaction.)

In assay [3] the target is T2, SLF1 tandem BRCT repeat (SLF1^tBRCT), residues 1-199, wild type (UniProt Q9BQI6 1-199).
T2 construct: SMC5/6 localization factor 1 (SLF1), tandem BRCT repeat at the N-terminus, residues 1-199; coding region optimized for E. coli and synthesized; also called WT; SMC5/6 localization factor 1 tBRCT; source: E. coli BL21 Rosetta (DE3), purified (Ni-NTA, heparin, gel filtration)
T2 sequence (looked up): T1 sequence (Q9BQI6 1-199)
The assay is described as above. Particulars: both partners purified.

Regarding “Rad18-pS442-4A: Rad18-pS442 peptide with I446A/I447A/L450A/L451A substitutions (SDSCNS[pS]SSDAARDAAE)”, the “binding to SLF1^tBRCT by ITC (in words)” value in assay [1] is given as “undetectable”. The same measure, in the same setting: for “Rad18-NP: unphosphorylated Rad18 peptide of the Ser442/Ser444-containing region (SDSCNSSSSDIIRDLLE)” the value was “undetectable”.

In assay [1], `CC[C@H](C)[C@H](NC(=O)[C@H](CC(=O)O)NC(=O)[C@H](COP(=O)(O)O)NC(=O)[C@H](CO)NC(=O)[C@H](CO)NC(=O)[C@H](CO)NC(=O)[C@H](CC(N)=O)NC(=O)[C@H](CS)NC(=O)[C@H](CO)NC(=O)[C@H](CC(=O)O)NC(=O)[C@@H](N)CO)C(=O)N[C@H](C(=O)N[C@@H](CCCNC(=N)N)C(=O)N[C@@H](CC(=O)O)C(=O)N[C@@H](CC(C)C)C(=O)N[C@@H](CC(C)C)C(=O)N[C@@H](CCC(=O)O)C(=O)O)[C@@H](C)CC` [Rad18-pS444] (H-SDSCNSSS[pS]DIIRDLLE-OH) displayed a Kd of 19700 ± 6460 nM.

In assay [2], “Rad18-pS444 peptide (from UniProt Q9NS91 436-452)” came in with a dH of -1.1 kcal/mol and a stoichiometry N of 1.28. Turning to `CC[C@H](C)[C@H](NC(=O)[C@H](CC(=O)O)NC(=O)[C@H](COP(=O)(O)O)NC(=O)[C@H](CO)NC(=O)[C@H](COP(=O)(O)O)NC(=O)[C@H](CO)NC(=O)[C@H](CC(N)=O)NC(=O)[C@H](CS)NC(=O)[C@H](CO)NC(=O)[C@H](CC(=O)O)NC(=O)[C@@H](N)CO)C(=O)N[C@H](C(=O)N[C@@H](CCCNC(=N)N)C(=O)N[C@@H](CC(=O)O)C(=O)N[C@@H](CC(C)C)C(=O)N[C@@H](CC(C)C)C(=O)N[C@@H](CCC(=O)O)C(=O)O)[C@@H](C)CC` [Rad18-2P] (H-SDSCNS[pS]S[pS]DIIRDLLE-OH), in assay [1], the dissociation constant Kd came out at 15 ± 3 nM. Consider “Rad18-pS442-2IA: Rad18-pS442 peptide with I446A/I447A substitution (SDSCNS[pS]SSDAARDLLE)”, for which the “binding to SLF1^tBRCT by ITC (in words)” value in assay [1] is “undetectable”.

In assay [2], “singularly phosphorylated Rad18-pS442 peptide (from UniProt Q9NS91 436-452)” displayed a dH of -1.79 kcal/mol and a stoichiometry N of 1.13.

As to `CC[C@H](C)[C@H](NC(=O)[C@H](CC(=O)O)NC(=O)[C@H](CO)NC(=O)[C@H](CO)NC(=O)[C@H](COP(=O)(O)O)NC(=O)[C@H](CO)NC(=O)[C@H](CC(N)=O)NC(=O)[C@H](CS)NC(=O)[C@H](CO)NC(=O)[C@H](CC(=O)O)NC(=O)[C@@H](N)CO)C(=O)N[C@H](C(=O)N[C@@H](CCCNC(=N)N)C(=O)N[C@@H](CC(=O)O)C(=O)N[C@@H](CC(C)C)C(=O)N[C@@H](CC(C)C)C(=O)N[C@@H](CCC(=O)O)C(=O)O)[C@@H](C)CC` [Rad18-pS442] (H-SDSCNS[pS]SSDIIRDLLE-OH), in assay [1], the Kd turned out to be 156 ± 5 nM.

B1: Rad18-2P-N440A peptide (peptide, UniProt Q9NS91 436-452, looked up)
peptide: SDSCAS[pS]S[pS]DIIRDLLE
notes: Rad18, human, residues 436-452, with N440A; source: synthetic peptide
With B1, in assay [3], the dissociation constant (Kd) was found to be 44 nM, the dH is -2.54 kcal/mol and the “stoichiometry N” value turned out to be 1.76.

B2: Rad18-2P-D449A peptide (peptide, UniProt Q9NS91 436-452, looked up)
peptide: SDSCNS[pS]S[pS]DIIRALLE
notes: Rad18, human, residues 436-452, with D449A; source: synthetic peptide
Take B2: in assay [3], binding was characterised by a dissociation constant (Kd) of 77 nM, the dH was -1.11 kcal/mol and the “stoichiometry N” value was determined as 1.52.

B3: Rad18-2P-R448A peptide (peptide, UniProt Q9NS91 436-452, looked up)
peptide: SDSCNS[pS]S[pS]DIIADLLE
notes: Rad18, human, residues 436-452, with R448A; source: synthetic peptide
As for B3, in assay [3], binding was characterised by a dissociation constant (Kd) of 38 nM, the dH is -2.15 kcal/mol and the “stoichiometry N” value is 1.63. Take GAAYDI[pS]QVFPFAKKK (source: synthetic peptide) [BRCTide, phosphopeptide optimized for binding to the BRCA1 tBRCT]: in assay [3], the equilibrium dissociation constant (Kd) stood at 27500 nM, the dH is -0.75 kcal/mol and the “stoichiometry N” value worked out at 1.12.

B4: Rad18-pS442-2LA peptide (L450A/L451A) (peptide, UniProt Q9NS91 436-452, looked up)
peptide: SDSCNS[pS]SSDIIRDAAE
notes: Rad18, human, residues 436-452, with L450A/L451A; source: synthetic peptide
As for B4, in assay [3], binding was put at a Kd of 450 nM, the dH was -2.39 kcal/mol and the “stoichiometry N” value turned out to be 1.67.
